The values below come from article PMC5741291 (2017).

The assay addresses Actin (F-actin, skeletal muscle) (Oryctolagus cuniculus, UniProt P68135). Kind of assay: stopped-flow light scattering.

B1: Myosin IIIA motor domain (p-huM3AMD) 311-1058 (protein)
chain: MGGTEKARRERIHTKKGNFNRPLISNLKDVDDLATLEILDENTVSEQLEKCYSRDQIYVYVGDILIALNPFQSLGLYSTKHSKLYIGSKRTASPPHIFAMADLGYQSMITYNSDQCIVISGESGAGKTENAHLLVQQLTVLGKANNRTLQEKILQVNNLVEAFGNACTIINDNSSRFGKYLEMKFTSSGAVVGAQISEYLLEKSRVIHQAIGEKNFHIFYYIYAGLAEKKKLAHYKLPENKPPRYLQNDHLRTVQDIMNNSFYKSQYELIEQCFKVIGFTMEQLGSIYSILAAILNVGNIEFSSVATEHQIDKSHISNHTALENCASLLCIRADELQEALTSHCVVTRGETIIRPNTVEKATDVRDAMAKTLYGRLFSWIVNCINSLLKHDSSPSGNGDELSIGILDIFGFENFKKNSFEQLCINIANEQIQYYYNQHVFAWEQNEYLNEDVDARVIEYEDNWPLLDMFLQKPMGLLSLLDEESRFPKATDQTLVEKFEGNLKSQYFWRPKRMELSFGIHHYAGKVLYNASGFLAKNRDTLPTDIVLLLRSSDNSVIRQLVNHPLTKTGNLPHSKTKNVINYQMRTSEKLINLAKGDTGEATRHARETTNMKTQTVASYFRYSLMDLLSKMVVGQPHFVRCIKPNSERQARKYDKEKVLLQLRYTGILETARIRRLGFSHRILFANFIKRYYLLCYKSSEEPRMSPDTCATILEKAGLDNWALGKTKVFLKYYHVEQLNLMRKEAIDK
modifications: phosphorylated by myosin IIIA kinase domain, MgADP
In general, Kd refers to the equilibrium constant for the complex coming apart. The molecule B1 registered a Kd of 1070 nM.
